From patent US20150203577A1 (Chugai, published 2015)

T1: mouse FcγRIII extracellular domain, C-terminally His-tagged (mouse, UniProt P08508 31-215)
T1 construct: the whole entry is named; also called mFcγRIII; mFcgRIII
T1 chain: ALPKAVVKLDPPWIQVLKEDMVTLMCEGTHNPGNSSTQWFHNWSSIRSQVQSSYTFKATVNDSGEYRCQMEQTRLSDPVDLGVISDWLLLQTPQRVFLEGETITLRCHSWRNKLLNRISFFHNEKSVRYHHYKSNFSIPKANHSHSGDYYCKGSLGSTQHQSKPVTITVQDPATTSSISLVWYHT

T2: mouse FcγRII extracellular domain, C-terminally His-tagged (mouse, UniProt P08101 30-210)
T2 construct: the whole entry is named; also called mFcγRII; mFcgRII
T2 sequence: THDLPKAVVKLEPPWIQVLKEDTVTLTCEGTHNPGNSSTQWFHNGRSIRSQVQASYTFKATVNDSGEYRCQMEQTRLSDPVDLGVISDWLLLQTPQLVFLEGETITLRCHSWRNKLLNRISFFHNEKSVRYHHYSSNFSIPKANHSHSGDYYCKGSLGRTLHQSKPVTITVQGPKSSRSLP


Tests used:
[1] = target: T1, mouse FcγRIII extracellular domain, …; assay: SPR Biacore T200, KD ratio
Source text: (§1) The antibody H chain variable region used was the variable region H237 (SEQ ID NO: 1) of the H chain VH3-IgG1 of the anti-IL-6 receptor antibody Fv4-IgG1 described in WO2009/125825. The antibody L chain commonly used was the L chain MRAL-k0 (SEQ ID NO: 2) of the anti-IL-6 receptor antibody tocilizumab. H237-MB476/MRAL-k0 and H237-MB515/MRAL-k0 were used as templates to introduce new alterations. These variants were expressed and purified by the method of Reference Example 1 and evaluated for their binding to mFcγRII and mFcγRIII by the method of Reference Example 2 using Biacore T200.
(§2) Each altered antibody was analyzed for its interaction with each Fcγ receptor prepared above using Biacore T100 (GE Healthcare Japan Corp.), Biacore T200 (GE Healthcare Japan Corp.), Biacore A100, or Biacore 4000. The running buffer used was HBS-EP+ (GE Healthcare Japan Corp.). The assay temperature was set to 25° C. The sensor chips used were chips prepared by immobilizing Protein L (ACTIGEN or BioVision) onto Series S Sensor Chip CM5 (GE Healthcare Japan Corp.) or Series S Sensor Chip CM4 (GE Healthcare Japan Corp.) by the amine coupling method.
(§3) In order to calculate the KD value of each altered antibody for FcγR, kinetic analysis was conducted according to the following method: first, the antibody of interest was captured onto any of these chips and allowed to interact with mFcγR diluted with a running buffer. For the obtained sensorgram, the assay results were globally fit into the 1:1 Langmuir binding model using Biacore Evaluation Software to calculate an association rate constant ka (L/mol/s) and a dissociation rate constant kd (1/s). From these values, the dissociation constant KD (mol/L) was calculated.

[2] = target: T2, mouse FcγRII extracellular domain, …; assay: SPR Biacore T200, KD ratio
Source text: as §1, §2, §3

[3] = target: T1, mouse FcγRIII extracellular domain, …; assay: SPR Biacore T200, KD ratio, template MB476
Source text: as §1, §2, §3

[4] = target: T2, mouse FcγRII extracellular domain, …; assay: SPR Biacore T200, KD ratio, template MB476
Source text: as §1, §2, §3

Binder	relative mFcγRIII-binding activity (mIgG1 = 1) [1] [fold]	relative mFcγRII-binding activity (mIgG1 = 1) [2] [fold]	relative mFcγRIII-binding activity (template = 1) [3] [fold]	relative mFcγRII-binding activity (template = 1) [4] [fold]	relative mFcγRII-binding activity (H237-mIgG1/MRAL-k0 = 1) [2] [fold]	relative mFcγRII-binding activity (template H237-MB476/MRAL-k0 = 1) [2] [fold]
H237-MB529/MRAL-k0 (antibody, mouse IgG1, kappa, copies: 2 + 2) heavy: QVQLQESGPGLVKPSETLSLTCAVSGHSISHDHAWSWVRQPPGEGLEWIGFISYSGITNYNPSLQGRVTISRDNSKNTLYLQMNSLRAEDTAVYYCARSLARTTAMDYWGEGTLVTVSSAKTTPPSVYPLAPGSAAQTNSMVTLGCLVKGYFPEPVTVTWNSGSLSSGVHTFPAVLQSDLYTLSSSVTVPSSTWPSETVTCNVAHPASSTKVDKKIVPRDCGCKPCICQPNEVEEVFIFPPKPKDVLTITLTPKVTCVVVDISKDDPEVQFSWFVDDVEVHTAQTQPREEQFNLTFRSVSELPIMHQDWLNGKEFKCRVNSAAFPAPIERTISKTKGRPKAPQVYTIPPPKEQMAKDKVSLTCMITDFFPEDITVEWQWNGQPAENYKNTQPIMDTDGSYFVYSKLNVQKSNWEAGNTFTCSVLHEGLHNHHTEKSLSHSPGK light: not shown	5.9	282	2.24	1.08		
H237-MB532/MRAL-k0 (antibody, mouse IgG1, kappa, copies: 2 + 2) heavy: QVQLQESGPGLVKPSETLSLTCAVSGHSISHDHAWSWVRQPPGEGLEWIGFISYSGITNYNPSLQGRVTISRDNSKNTLYLQMNSLRAEDTAVYYCARSLARTTAMDYWGEGTLVTVSSAKTTPPSVYPLAPGSAAQTNSMVTLGCLVKGYFPEPVTVTWNSGSLSSGVHTFPAVLQSDLYTLSSSVTVPSSTWPSETVTCNVAHPASSTKVDKKIVPRDCGCKPCICQPNEVEEVFIFPPKPKDVLTITLTPKVTCVVVDISKDDPEVQFSWFVDDVEVHTAQTQPREEQFNSTFRSVSELPIMHQDWLNGKEFKCRVNSDAFPAPIERTISKTKGRPKAPQVYTIPPPKEQMAKDKVSLTCMITDFFPEDITVEWQWNGQPAENYKNTQPIMDTDGSYFVYSKLNVQKSNWEAGNTFTCSVLHEGLHNHHTEKSLSHSPGK light: not shown	6.2	329	2.35	1.26		
H237-MB533/MRAL-k0 (antibody, mouse IgG1, kappa, copies: 2 + 2) heavy: QVQLQESGPGLVKPSETLSLTCAVSGHSISHDHAWSWVRQPPGEGLEWIGFISYSGITNYNPSLQGRVTISRDNSKNTLYLQMNSLRAEDTAVYYCARSLARTTAMDYWGEGTLVTVSSAKTTPPSVYPLAPGSAAQTNSMVTLGCLVKGYFPEPVTVTWNSGSLSSGVHTFPAVLQSDLYTLSSSVTVPSSTWPSETVTCNVAHPASSTKVDKKIVPRDCGCKPCICQPNEVEEVFIFPPKPKDVLTITLTPKVTCVVVDISKDDPEVQFSWFVDDVEVHTAQTQPREEQFNLTFRSVSELPIMHQDWLNGKEFKCRVDSDAFPAPIEKTISKTKGRPKAPQVYTIPPPKEQMAKDKVSLTCMITDFFPEDITVEWQWNGQPAENYKNTQPIMDTDGSYFVYSKLNVQKSNWEAGNTFTCSVLHEGLHNHHTEKSLSHSPGK light: not shown	7.2	394	2.74	1.51		
H237-MB530/MRAL-k0 (antibody, mouse IgG1, kappa, copies: 2 + 2) heavy: QVQLQESGPGLVKPSETLSLTCAVSGHSISHDHAWSWVRQPPGEGLEWIGFISYSGITNYNPSLQGRVTISRDNSKNTLYLQMNSLRAEDTAVYYCARSLARTTAMDYWGEGTLVTVSSAKTTPPSVYPLAPGSAAQTNSMVTLGCLVKGYFPEPVTVTWNSGSLSSGVHTFPAVLQSDLYTLSSSVTVPSSTWPSETVTCNVAHPASSTKVDKKIVPRDCGCKPCICQPNEVEEVFIFPPKPKDVLTITLTPKVTCVVVDISKDDPEVQFSWFVDDVEVHTAQTQPREEQFNSTFRSVSELPIMHQDWLNGKEFKCRVDSDAFPAPIEKTISKTKGRPKAPQVYTIPPPKEQMAKDKVSLTCMITDFFPEDITVEWQWNGQPAENYKNTQPIMDTDGSYFVYSKLNVQKSNWEAGNTFTCSVLHEGLHNHHTEKSLSHSPGK light: not shown	8	623	3.04	2.38	≥ 350	≥ 1.4
H237-MB531/MRAL-k0 (antibody, mouse IgG1, kappa, copies: 2 + 2) heavy: QVQLQESGPGLVKPSETLSLTCAVSGHSISHDHAWSWVRQPPGEGLEWIGFISYSGITNYNPSLQGRVTISRDNSKNTLYLQMNSLRAEDTAVYYCARSLARTTAMDYWGEGTLVTVSSAKTTPPSVYPLAPGSAAQTNSMVTLGCLVKGYFPEPVTVTWNSGSLSSGVHTFPAVLQSDLYTLSSSVTVPSSTWPSETVTCNVAHPASSTKVDKKIVPRDCGCKPCICQPNEVEEVFIFPPKPKDVLTITLTPKVTCVVVDISKDDPEVQFSWFVDDVEVHTAQTQPREEQFNSTFRSVSELPIMHQDWLNGKEFKCRVDSAAFPAPIERTISKTKGRPKAPQVYTIPPPKEQMAKDKVSLTCMITDFFPEDITVEWQWNGQPAENYKNTQPIMDTDGSYFVYSKLNVQKSNWEAGNTFTCSVLHEGLHNHHTEKSLSHSPGK light: not shown	3.3	229	1.25	0.88		

Other lines, results leading:

relative mFcγRIII-binding activity (mIgG1 = 1) [1] [fold]	relative mFcγRII-binding activity (mIgG1 = 1) [2] [fold]	relative mFcγRIII-binding activity (template = 1) [3] [fold]	relative mFcγRII-binding activity (template = 1) [4] [fold]	relative mFcγRII-binding activity (H237-mIgG1/MRAL-k0 = 1) [2] [fold]	relative mFcγRII-binding activity (template H237-MB476/MRAL-k0 = 1) [2] [fold]	Binder
33.8	421	12.8	1.61			H237-MB534/MRAL-k0 (antibody, mouse IgG1, kappa, copies: 2 + 2) heavy: QVQLQESGPGLVKPSETLSLTCAVSGHSISHDHAWSWVRQPPGEGLEWIGFISYSGITNYNPSLQGRVTISRDNSKNTLYLQMNSLRAEDTAVYYCARSLARTTAMDYWGEGTLVTVSSAKTTPPSVYPLAPGSAAQTNSMVTLGCLVKGYFPEPVTVTWNSGSLSSGVHTFPAVLQSDLYTLSSSVTVPSSTWPSETVTCNVAHPASSTKVDKKIVPRDCGCKPCICQPNEVEEVFIFPPKPKDVLTITLTPKVTCVVVDISKDDPEVQFSWFVDDVEVHTAQTQPREEQFNLTFRSVSELPIMHQDWLNGKEFKCRVDSAAFPAPIERTISKTKGRPKAPQVYTIPPPKEQMAKDKVSLTCMITDFFPEDITVEWQWNGQPAENYKNTQPIMDTDGSYFVYSKLNVQKSNWEAGNTFTCSVLHEGLHNHHTEKSLSHSPGK light: not shown
8.5	422	3.21	1.61			H237-MB535/MRAL-k0 (antibody, mouse IgG1, kappa, copies: 2 + 2) heavy: QVQLQESGPGLVKPSETLSLTCAVSGHSISHDHAWSWVRQPPGEGLEWIGFISYSGITNYNPSLQGRVTISRDNSKNTLYLQMNSLRAEDTAVYYCARSLARTTAMDYWGEGTLVTVSSAKTTPPSVYPLAPGSAAQTNSMVTLGCLVKGYFPEPVTVTWNSGSLSSGVHTFPAVLQSDLYTLSSSVTVPSSTWPSETVTCNVAHPASSTKVDKKIVPRDCGCKPCICQPNEVEEVFIFPPKPKDVLTITLTPKVTCVVVDISKDDPEVQFSWFVDDVEVHTAQTQPREEQFNLTFRSVSELPIMHQDWLNGKEFKCRVNSDAFPAPIERTISKTKGRPKAPQVYTIPPPKEQMAKDKVSLTCMITDFFPEDITVEWQWNGQPAENYKNTQPIMDTDGSYFVYSKLNVQKSNWEAGNTFTCSVLHEGLHNHHTEKSLSHSPGK light: not shown
7.7	396	2.9	1.52			H237-MB536/MRAL-k0 (antibody, mouse IgG1, kappa, copies: 2 + 2) heavy: QVQLQESGPGLVKPSETLSLTCAVSGHSISHDHAWSWVRQPPGEGLEWIGFISYSGITNYNPSLQGRVTISRDNSKNTLYLQMNSLRAEDTAVYYCARSLARTTAMDYWGEGTLVTVSSAKTTPPSVYPLAPGSAAQTNSMVTLGCLVKGYFPEPVTVTWNSGSLSSGVHTFPAVLQSDLYTLSSSVTVPSSTWPSETVTCNVAHPASSTKVDKKIVPRDCGCKPCICQPNEVEEVFIFPPKPKDVLTITLTPKVTCVVVDISKDDPEVQFSWFVDDVEVHTAQTQPREEQFNSTFRSVSELPIMHQDWLNGKEFKCRVDSDAFPAPIERTISKTKGRPKAPQVYTIPPPKEQMAKDKVSLTCMITDFFPEDITVEWQWNGQPAENYKNTQPIMDTDGSYFVYSKLNVQKSNWEAGNTFTCSVLHEGLHNHHTEKSLSHSPGK light: not shown
